{
  "source": "patent CN108218984A",
  "about": "(ZHUHAI TRINOMAB BIOTECHNOLOGY CO LTD; GUANGZHOU TAINUODI …, dated 2018)",
  "target": "破伤风标准毒素 (破伤风毒素蛋白) (Clostridium tetani, UniProt P04958 2-1315)",
  "sequence (P04958 2-457 limits assumed, chain 1 of 2)": "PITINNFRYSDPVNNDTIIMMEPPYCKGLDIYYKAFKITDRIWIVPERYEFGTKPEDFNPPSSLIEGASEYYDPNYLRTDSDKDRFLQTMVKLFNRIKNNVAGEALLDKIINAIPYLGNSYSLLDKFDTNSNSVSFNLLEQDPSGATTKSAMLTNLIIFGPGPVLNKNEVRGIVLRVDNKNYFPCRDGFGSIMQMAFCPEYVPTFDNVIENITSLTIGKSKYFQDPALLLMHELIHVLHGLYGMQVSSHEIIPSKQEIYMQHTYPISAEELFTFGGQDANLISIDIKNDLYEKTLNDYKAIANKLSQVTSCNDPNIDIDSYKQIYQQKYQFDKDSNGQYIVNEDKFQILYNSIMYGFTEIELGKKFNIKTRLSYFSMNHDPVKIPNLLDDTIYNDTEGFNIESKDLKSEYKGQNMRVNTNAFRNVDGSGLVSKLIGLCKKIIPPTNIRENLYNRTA",
  "sequence (P04958 458-1315 limits assumed, chain 2 of 2)": "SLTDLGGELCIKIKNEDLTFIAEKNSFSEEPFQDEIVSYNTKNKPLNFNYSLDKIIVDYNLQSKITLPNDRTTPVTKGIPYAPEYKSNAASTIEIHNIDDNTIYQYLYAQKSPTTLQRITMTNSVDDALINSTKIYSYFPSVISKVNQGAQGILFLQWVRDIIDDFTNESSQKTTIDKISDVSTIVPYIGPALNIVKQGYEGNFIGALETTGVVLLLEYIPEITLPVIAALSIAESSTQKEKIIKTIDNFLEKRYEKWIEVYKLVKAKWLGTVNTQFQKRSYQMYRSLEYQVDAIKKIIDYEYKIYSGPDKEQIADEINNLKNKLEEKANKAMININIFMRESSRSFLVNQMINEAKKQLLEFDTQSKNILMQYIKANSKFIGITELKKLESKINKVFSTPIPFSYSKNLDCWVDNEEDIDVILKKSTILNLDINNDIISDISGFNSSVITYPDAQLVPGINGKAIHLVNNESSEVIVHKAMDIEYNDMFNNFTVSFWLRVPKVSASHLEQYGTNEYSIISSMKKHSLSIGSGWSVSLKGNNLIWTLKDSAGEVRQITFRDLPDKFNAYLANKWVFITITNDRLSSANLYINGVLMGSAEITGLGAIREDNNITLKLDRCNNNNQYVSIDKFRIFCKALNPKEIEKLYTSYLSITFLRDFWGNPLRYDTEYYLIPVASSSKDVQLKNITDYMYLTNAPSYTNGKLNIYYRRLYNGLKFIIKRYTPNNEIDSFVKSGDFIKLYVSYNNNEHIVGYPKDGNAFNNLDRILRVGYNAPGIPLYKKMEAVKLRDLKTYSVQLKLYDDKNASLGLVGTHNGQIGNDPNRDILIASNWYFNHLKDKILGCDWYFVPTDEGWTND",
  "data": [
    {"binder": "TRN0011抗体 (全人源抗破伤风毒素中和抗体) (antibody, V domains shown) VH: QVQLQESGAGLVKPSETLSLTCGVAGGPFTGSYLSWIRQPPGKGLEWIGEVSQSGSTSYNPSLKSRVTISVDTSKSQFSLKLSSVTAADTAVYYCARLTKHYINSAYWGQGTLVTVSS VL: DIQMTQSPSILSASVGDRVTITCRASQIIGSWLAWYQQKPGKAPTLVIYKASRLDSGVPSRFSGTESGTEFTLTISSLQPDDFATYYCQQYNSYPYTFGQGTKLEIK", "values": [
      {"measurement": "Kd", "value": 0.905, "unit": "nM"},
      {"measurement": "koff", "value": "3.87e-05", "unit": "s⁻¹"},
      {"measurement": "kon", "value": 42700, "unit": "M⁻¹ s⁻¹"}
    ]}
  ]
}
